The source of these data is paper PMC11487272.

Assay [1] concerns the target cFLIP^tDED_H7G (cFLIP tandem DED, residues 1-181, H7G) (UniProt O15519). The assay is described as follows: crystal structure.
In assay [2] the target is wild-type cFLIP^tDED as used in the ternary co-purification (UniProt O15519). As to the kind of experiment: cryo-EM structure.

On to “cFLIP^tDED_H7G (cFLIP tandem DED, residues 1-181, H7G) (from UniProt O15519 1-181) (domain or fragment)”, for which, in assay [1], the stoichiometry N (molecules in the complex) worked out at 6.

In assay [2], “wild-type cFLIP^tDED as used in the ternary co-purification (from UniProt O15519 1-181) (domain or fragment)” registered a stoichiometry N (molecules in the complex (Complex D)) of 5, a stoichiometry N (molecules in the complex (Complex E)) of 6, a stoichiometry N (molecules in the complex (Complex F)) of 8 and a stoichiometry N (molecules in the complex (Complex G)) of 4.
